Laboratory results: patent US20240301086A1 (APTEVO RESEARCH AND DEVELOPMENT, published 2024)

Legend:
[1] = biological target: T1, Full-length Human PSMA (TSC435), on cells (human, UniProt Q04609 1-750); assay: flow cytometry on C4-2B cells, PE goat anti-human IgG Fc secondary, MFI (median)
T1 construct: also called CHOK1SV/huPSMA; PSMA on C4-2B, 22RV1, LNCaP, MDA-PCa-2b cells

[2] = biological target: T2, human CD3ε in the TCR/CD3 complex on Jurkat cells (human, UniProt P07766 23-207); assay: flow cytometry on Jurkat cells, PE goat anti-human IgG Fc secondary, MFI (median)
T2 construct: whole, on cells; On the cells it stands in the whole TCR/CD3 complex; also called CD3 (+) cells; CD3-expressing Jurkat cells

[3] = biological target: T1, Full-length Human PSMA (TSC435), on …; assay: flow cytometry on C4-2B cells, PE goat anti-human IgG Fc secondary, MFI (median); remark: listed apart in the source
Procedure: The PSMA-binding domain PSMA01023 was evaluated in several different structural formats, including an alternative Fc region with different mutations to eliminate effector function. The PSMA01023 binding domain was configured in scFv-Fc format in VL-VH (PSMA01036) and VH-VL (PSMA01037) orientations and in Fc-scFv format in VL-VH (PSMA01040) and VH-VL (PSMA01041) orientations. These molecules were evaluated for the impact of the orientation of the scFv domains (VH-VL versus VL-VH) and position on the Fc (N- vs. C-terminus) on binding to PSMA (+) tumor cells.
C4-2B and 22RV1 cells were labelled at approximately 100,000 cells per well, in 96-well plates, with serial dilutions of PSMA-binding constructs ranging from of 0.1 to 300 nM for 30 min on ice, followed by washes and incubation with PE-labeled minimum cross species reactive secondary antibody, goat anti-human IgG Fcγ, F(ab′)2 (Jackson Laboratory) for 30 minutes on ice. Washes and incubation were done in staining buffer (PBS with 0.2% BSA and 2 mM EDTA). Cells were collected using a BDM LSRII or a BD FACSymphony™ flow cytometer (BD Biosciences) and analyzed by FlowJo flow cytometry analysis software. Median fluorescence intensity (MFI) of bound molecules on cells was determined after exclusion of doublets. Graphs were plotted using GraphPad Prism 7®.

T2 sequence (P07766 23-207, one chain of several): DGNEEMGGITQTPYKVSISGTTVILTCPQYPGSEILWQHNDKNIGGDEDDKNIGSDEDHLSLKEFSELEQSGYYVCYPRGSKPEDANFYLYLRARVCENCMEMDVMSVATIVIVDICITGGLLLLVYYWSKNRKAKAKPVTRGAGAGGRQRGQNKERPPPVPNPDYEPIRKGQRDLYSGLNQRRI
T1 sequence (Q04609 whole entry): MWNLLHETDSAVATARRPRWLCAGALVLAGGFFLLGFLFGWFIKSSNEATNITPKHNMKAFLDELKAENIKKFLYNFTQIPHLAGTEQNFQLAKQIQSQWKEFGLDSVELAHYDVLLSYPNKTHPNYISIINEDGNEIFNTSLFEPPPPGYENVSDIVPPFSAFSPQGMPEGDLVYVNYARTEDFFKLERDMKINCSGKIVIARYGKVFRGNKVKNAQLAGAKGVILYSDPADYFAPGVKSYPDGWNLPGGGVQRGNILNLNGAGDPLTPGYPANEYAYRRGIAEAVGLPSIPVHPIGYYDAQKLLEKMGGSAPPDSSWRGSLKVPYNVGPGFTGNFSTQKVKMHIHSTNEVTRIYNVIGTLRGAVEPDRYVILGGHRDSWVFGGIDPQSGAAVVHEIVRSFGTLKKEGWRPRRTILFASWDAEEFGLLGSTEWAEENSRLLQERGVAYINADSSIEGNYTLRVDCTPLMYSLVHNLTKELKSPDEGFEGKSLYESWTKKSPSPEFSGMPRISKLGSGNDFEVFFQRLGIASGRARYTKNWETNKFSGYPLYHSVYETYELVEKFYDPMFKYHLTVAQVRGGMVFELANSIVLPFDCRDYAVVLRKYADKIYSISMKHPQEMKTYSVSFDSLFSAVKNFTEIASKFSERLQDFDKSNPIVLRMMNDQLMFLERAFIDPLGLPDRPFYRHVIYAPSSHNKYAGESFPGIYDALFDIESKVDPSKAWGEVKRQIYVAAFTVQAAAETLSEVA

Row | EC50 [1] [nM] | EC50 [2] [nM] | binding result [3] | Binder
1 | 30 | 52 | – | PSMA01070 Anti PSMA scFv-Fc; Anti CD3 scFv-Fc (bispecific antibody) chain 1: QVQLVQSGAEVKKPGASVKVSCKASGYTFTDYYMHWVRQAPGQGLEWMGYFNPYNDYTRYAQKFQGRVTMTRDTSTSTVYMELSSLRSEDTAVYYCARSDGYYDAMDYWGQGTTVTVSSGGGGSGGGGSGGGGSGGGGSDIQMTQSPSSLSASVGDRVTITCRASKSISKYLAWYQQKPGKAPKLLIHSGSSLESGVPSRFSGSGSGTEFTLTISSLQPDDFATYYCQQHIEYPWTFGQGTKVEIKEPKSSDKTHTCPPCPAPPAAAPSVFLFPPKPKDTLMISRTPEVTCVVVDVSHEDPEVKFNWYVDGVEVHNAKTKPREEQYNSTYRVVSVLTVLHQDWLNGKEYKCAVSNKALPAPIEKTISKAKGQPREPQVYTLPPSRDELTKNQVSLWCLVKGFYPSDIAVEWESNGQPENNYKTTPPVLDSDGSFFLYSKLTVDKSRWQQGNVFSCSVMHEALHNHYTQKSLSLSPG chain 2: QVQLVQSGAEVKKPGASVKVSCKASGYTFTRSTMHWVRQAPGQGLEWIGYINPSSAYTNYAQKFQGRVTLTADKSTSTAYMELSSLRSEDTAVYYCASPQVHYDYNGFPYWGQGTLVTVSSGGGGSGGGGSGGGGSGGGGSDIQMTQSPSSLSASVGDRVTITCRASSSVSYMNWYQQKPGKAPKRWIYDSSKLASGVPSRFSGSGSGTDFTLTISSLQPEDFATYYCQQWSRNPPTFGQGTKVEIKEPKSSDKTHTCPPCPAPPAAAPSVFLFPPKPKDTLMISRTPEVTCVVVDVSHEDPEVKFNWYVDGVEVHNAKTKPREEQYNSTYRVVSVLTVLHQDWLNGKEYKCAVSNKALPAPIEKTISKAKGQPREPQVYTLPPSRDELTKNQVSLSCAVKGFYPSDIAVEWESNGQPENNYKTTPPVLDSDGSFFLVSKLTVDKSRWQQGNVFSCSVMHEALHNRFTQKSLSLSPG
2 | – | – | binds | PSMA01037 Anti-PSMA scFv-Fc (Fc fusion, also called PSMA010137) QVQLVQSGAEVKKPGASVKVSCKASGYTFTDYYMHWVRQAPGQGLEWMGYFNPYNDYTRYAQKFQGRVTMTRDTSTSTVYMELSSLRSEDTAVYYCARSDGYYDAMDYWGQGTTVTVSSGGGGSGGGGSGGGGSGGGGSDIQMTQSPSTLSASVGDRVTITCRASKSISKYLAWYQQKPGKAPKLLIHSGSSLESGVPSRFSGSGSGTEFTLTISSLQPDDFATYYCQQHIEYPWTFGQGTKVEIKSSSEPKSSDKTHTCPPCPAPPAAAPSVFLFPPKPKDTLMISRTPEVTCVVVDVSHEDPEVKFNWYVDGVEVHNAKTKPREEQYNSTYRVVSVLTVLHQDWLNGKEYKCAVSNKALPAPIEKTISKAKGQPREPQVYTLPPSRDELTKNQVSLTCLVKGFYPSDIAVEWESNGQPENNYKTTPPVLDSDGSFFLYSKLTVDKSRWQQGNVFSCSVMHEALHNHYTQKSLSLSPGK

The remaining lines, values behind:

Row | Binder | EC50 [1] [nM] | EC50 [2] [nM] | binding result [3]
3 | PSMA01026 Anti PSMA scFv-Fc; Anti CD3 scFv-Fc (bispecific antibody) chain 1: DIQMTQSPSTLSASVGDRVTITCRASKSISKYLAWYQQKPGKAPKLLIHSGSSLESGVPSRFSGSGSGTEFTLTISSLQPDDFATYYCQQHIEYPWTFGQGTKVEIKGGGGSGGGGSGGGGSGGGGSQVQLVQSGAEVKKPGASVKVSCKASGYTFTDYYMHWVRQAPGQGLEWMGYFNPYNDYTRYAQKFQGRVTMTRDTSTSTVYMELSSLRSEDTAVYYCARSDGYYDAMDYWGQGTTVTVEPKSSDKTHTCPPCPAPPAAAPSVFLFPPKPKDTLMISRTPEVTCVVVDVSHEDPEVKFNWYVDGVEVHNAKTKPREEQYNSTYRVVSVLTVLHQDWLNGKEYKCAVSNKALPAPIEKTISKAKGQPREPQVYTLPPSRDELTKNQVSLWCLVKGFYPSDIAVEWESNGQPENNYKTTPPVLDSDGSFFLYSKLTVDKSRWQQGNVFSCSVMHEALHNHYTQKSLSLSPG chain 2: QVQLVQSGAEVKKPGASVKVSCKASGYTFTRSTMHWVRQAPGQGLEWIGYINPSSAYTNYAQKFQGRVTLTADKSTSTAYMELSSLRSEDTAVYYCASPQVHYDYNGFPYWGQGTLVTVSSGGGGSGGGGSGGGGSGGGGSDIQMTQSPSSLSASVGDRVTITCRASSSVSYMNWYQQKPGKAPKRWIYDSSKLASGVPSRFSGSGSGTDFTLTISSLQPEDFATYYCQQWSRNPPTFGQGTKVEIKEPKSSDKTHTCPPCPAPPAAAPSVFLFPPKPKDTLMISRTPEVTCVVVDVSHEDPEVKFNWYVDGVEVHNAKTKPREEQYNSTYRVVSVLTVLHQDWLNGKEYKCAVSNKALPAPIEKTISKAKGQPREPQVYTLPPSRDELTKNQVSLSCAVKGFYPSDIAVEWESNGQPENNYKTTPPVLDSDGSFFLVSKLTVDKSRWQQGNVFSCSVMHEALHNRFTQKSLSLSPG | 23 | 26 | –
4 | PSMA01072 Anti PSMA scFv x Anti CD3 scFv ADAPTIR (bispecific antibody, also called PSMA1072) QVQLVQSGAEVKKPGASVKVSCKASGYTFTDYYMHWVRQAPGQGLEWMGYFNPYNDYTRYAQKFQGRVTMTRDTSTSTVYMELSSLRSEDTAVYYCARSDGYYDAMDYWGQGTTVTVSSGGGGSGGGGSGGGGSGGGGSDIQMTQSPSSLSASVGDRVTITCRASKSISKYLAWYQQKPGKAPKLLIHSGSSLESGVPSRFSGSGSGTEFTLTISSLQPDDFATYYCQQHIEYPWTFGQGTKVEIKEPKSSDKTHTCPPCPAPPAAAPSVFLFPPKPKDTLMISRTPEVTCVVVDVSHEDPEVKFNWYVDGVEVHNAKTKPREEQYNSTYRVVSVLTVLHQDWLNGKEYKCAVSNKALPAPIEKTISKAKGQPREPQVYTLPPSRDELTKNQVSLTCLVKGFYPSDIAVEWESNGQPENNYKTTPPVLDSDGSFFLYSKLTVDKSRWQQGNVFSCSVMHEALHNHYTQKSLSLSPGGGGSPSQVQLVQSGAEVKKPGASVKVSCKASGYTFTRSTMHWVRQAPGQGLEWIGYINPSSAYTNYAQKFQGRVTLTADKSTSTAYMELSSLRSEDTAVYYCASPQVHYDYNGFPYWGQGTLVTVSSGGGGSGGGGSGGGGSGGGGSDIQMTQSPSSLSASVGDRVTITCRASSSVSYMNWYQQKPGKAPKRWIYDSSKLASGVPSRFSGSGSGTDFTLTISSLQPEDFATYYCQQWSRNPPTFGQGTKVEIKRS | 1 | 1 | –
5 | PSMA01086 Anti PSMA scFv x Fc; Anti PSMA scFv x Fc x linker x Anti CD3 scFv (bispecific antibody) chain 1: QVQLVQSGAEVKKPGASVKVSCKASGYTFTDYYMHWVRQAPGQGLEWMGYFNPYNDYTRYAQKFQGRVTMTRDTSTSTVYMELSSLRSEDTAVYYCARSDGYYDAMDYWGQGTTVTVSSGGGGSGGGGSGGGGSGGGGSDIQMTQSPSSLSASVGDRVTITCRASKSISKYLAWYQQKPGKAPKLLIHSGSSLESGVPSRFSGSGSGTEFTLTISSLQPDDFATYYCQQHIEYPWTFGQGTKVEIKEPKSSDKTHTCPPCPAPPAAAPSVFLFPPKPKDTLMISRTPEVTCVVVDVSHEDPEVKFNWYVDGVEVHNAKTKPREEQYNSTYRVVSVLTVLHQDWLNGKEYKCAVSNKALPAPIEKTISKAKGQPREPQVYTLPPSRDELTKNQVSLWCLVKGFYPSDIAVEWESNGQPENNYKTTPPVLDSDGSFFLYSKLTVDKSRWQQGNVFSCSVMHEALHNHYTQKSLSLSPG chain 2: QVQLVQSGAEVKKPGASVKVSCKASGYTFTDYYMHWVRQAPGQGLEWMGYFNPYNDYTRYAQKFQGRVTMTRDTSTSTVYMELSSLRSEDTAVYYCARSDGYYDAMDYWGQGTTVTVSSGGGGGGGGSGGGGSGGGGSDIQMTQSPSSLSASVGDRVTITCRASKSISKYLAWYQQKPGKAPKLLIHSGSSLESGVPSRFSGSGSGTEFTLTISSLQPDDFATYYCQQHIEYPWTFGQGTKVEIKEPKSSDKTHTCPPCPAPPAAAPSVFLFPPKPKDTLMISRTPEVTCVVVDVSHEDPEVKFNWYVDGVEVHNAKTKPREEQYNSTYRVVSVLTVLHQDWLNGKEYKCAVSNKALPAPIEKTISKAKGQPREPQVYTLPPSRDELTKNQVSLSCAVKGFYPSDIAVEWESNGQPENNYKTTPPVLDSDGSFFLVSKLTVDKSRWQQGNVFSCSVMHEALHNRFTQKSLSLSPGGGGSPSDIQMTQSPSSLSASVGDRVTITCRASSSVSYMNWYQQKPGKAPKRWIYDSSKLASGVPSRFSGSGSGTDFTLTISSLQPEDFATYYCQQWSRNPPTFGQGTKVEIKGGGGSGGGGSGGGGSGGGGSQVQLVQSGAEVKKPGASVKVSCKASGYTFTRSTMHWVRQAPGQGLEWIGYINPSSAYTNYAQKFQGRVTLTADKSTSTAYMELSSLRSEDTAVYYCASPQVHYDYNGFPYWGQGTLVTVSS | 1 | > 261 | –
6 | PSMA01036 Anti-PSMA scFv-Fc (Fc fusion) DIQMTQSPSTLSASVGDRVTITCRASKSISKYLAWYQQKPGKAPKLLIHSGSSLESGVPSRFSGSGSGTEFTLTISSLQPDDFATYYCQQHIEYPWTFGQGTKVEIKGGGGSGGGGSGGGGSGGGGSQVQLVQSGAEVKKPGASVKVSCKASGYTFTDYYMHWVRQAPGQGLEWMGYFNPYNDYTRYAQKFQGRVTMTRDTSTSTVYMELSSLRSEDTAVYYCARSDGYYDAMDYWGQGTTVTVSSSEPKSSDKTHTCPPCPAPPAAAPSVFLFPPKPKDTLMISRTPEVTCVVVDVSHEDPEVKFNWYVDGVEVHNAKTKPREEQYNSTYRVVSVLTVLHQDWLNGKEYKCAVSNKALPAPIEKTISKAKGQPREPQVYTLPPSRDELTKNQVSLTCLVKGFYPSDIAVEWESNGQPENNYKTTPPVLDSDGSFFLYSKLTVDKSRWQQGNVFSCSVMHEALHNHYTQKSLSLSPGK | – | – | binds
